Experimental data reported in patent US10610603B2, “Thymidine kinase gene” (GenVivo, Inc., priority 2013, dated 2020).

B1: SEQ ID NO: 18 (nucleic acid)
chain: GTCAGCGGCCGCACCGGTACGCGTCCACCATGGCCCTGCAGAAAAAGCTGGAAGAGCTGGAACTGGATGGCAGCTACCCCGGCCACCAGCACGCCAGCGCCTTCGACCAGGCCGCCCGCAGCCGCGGCCACAGCAACGGCAGCACCGCACTGCGGCCAGGATCTCAGCAGGAGGCCACCGAGGTGCGCCCCGAGCAGAAGATGCCCACCCTGCTGCGCGTGTACATCGACGGACCACACGGCATGGGCAAGACCACCACCACCCAGCTGCTGGTGGCCCTGGGCAGCCGCGACGACATCGTGTACGTGCCCGAGCCCATGACCTACTGGCGCGTGCTGGGCGCCAGCGAGACCATCGCCAACATCTACACCACCCAGCACCGCCTGGACCAAGGCGAGATCAGCGCCGGCGACGCCGCCGTGGTGATGACCAGCGCCCAGATTACAATGGGCATGCCCTACGCCGTGACCGACGCCGTGCTGGCACCACACATCGGCGGCGAGGCCGGCAGCAGCCACGCACCACCACCAGCACTGACCCTGATCTTCGACCGGCACCCAATCGCACACCTGCTGTGCTACCCGGCAGCACGCTACCTGATGGGCTCCATGACACCACAAGCCGTGCTGGCCTTCGTGGCCCTGATCCCACCAACACTGCCCGGCACCAACATCGTGCTGGGCGCCCTGCCCGAGGACCGCCACATCGACCGCCTGGCCAAGCGCCAGCGCCCCGGCGAGCGCCTGGACCTGGCCATGCTGGCCGCCATCCGCCGCGTGTACGGCCTGCTGGCCAACACCGTGCGCTACCTGCAGTGCGGCGGCAGCTGGCGCGAGGACTGGGGCCAGCTGAGCGGCACCGCCGTGCCACCACAGGGCGCCGAGCCACAGAGCAACGCCGGACCACGACCACACATCGGCGACACCCTGTTCACCCTGTTCCGGGCACCAGAGCTGCTGGCACCAAACGGCGACCTGTACAACGTGTTCGCCTGGGCCCTGGACGTGCTGGCCAAGCGCCTGCGCTCCATGCACGTGTTCATCCTGGACTACGACCAGTCACCGGCCGGCTGCCGCGACGCCCTGCTGCAGCTGACCAGCGGCATGGTGCAGACCCACGTGACAACACCCGGCAGCATCCCAACAATCTGCGACCTGGCCCGCACCTTCGCCCGCGAGATGGGCGAGGCCAACTAATAGGGATCCCTCGAGAAGCTTGTCA
B2: A168H and mutated at amino acids 159-161 from LIF to IFL: mHSV-TK CO MB-IFL A168H(IFL . . . AHL) (nucleic acid)
chain: GTCAGCGGCCGCACCGGTACGCGTCCACCATGGCCAGCTACCCCGGCCACCAGCACGCCAGCGCCTTCGACCAGGCCGCCCGCAGCCGCGGCCACAGCAACGGCAGCACCGCACTGCGGCCACGGCGCCAGCAGGAGGCCACCGAGGTGCGCCCCGAGCAGAAGATGCCCACCCTGCTGCGCGTGTACATCGACGGACCACACGGCATGGGCAAGACCACCACCACCCAGCTGCTGGTGGCCCTGGGCAGCCGCGACGACATCGTGTACGTGCCCGAGCCCATGACCTACTGGCGCGTGCTGGGCGCCAGCGAGACCATCGCCAACATCTACACCACCCAGCACCGCCTGGACCAAGGCGAGATCAGCGCCGGCGACGCCGCCGTGGTGATGACCAGCGCCCAGATTACAATGGGCATGCCCTACGCCGTGACCGACGCCGTGCTGGCACCACACATCGGCGGCGAGGCCGGCAGCAGCCACGCACCACCACCAGCACTGACCATCTTCCTGGACCGGCACCCAATCGCACACCTGCTGTGCTACCCGGCAGCACGCTACCTGATGGGCTCCATGACACCACAAGCCGTGCTGGCCTTCGTGGCCCTGATCCCACCAACACTGCCCGGCACCAACATCGTGCTGGGCGCCCTGCCCGAGGACCGCCACATCGACCGCCTGGCCAAGCGCCAGCGCCCCGGCGAGCGCCTGGACCTGGCCATGCTGGCCGCCATCCGCCGCGTGTACGGCCTGCTGGCCAACACCGTGCGCTACCTGCAGTGCGGCGGCAGCTGGCGCGAGGACTGGGGCCAGCTGAGCGGCACCGCCGTGCCACCACAGGGCGCCGAGCCACAGAGCAACGCCGGACCACGACCACACATCGGCGACACCCTGTTCACCCTGTTCCGGGCACCAGAGCTGCTGGCACCAAACGGCGACCTGTACAACGTGTTCGCCTGGGCCCTGGACGTGCTGGCCAAGCGCCTGCGCTCCATGCACGTGTTCATCCTGGACTACGACCAGTCACCGGCCGGCTGCCGCGACGCCCTGCTGCAGCTGACCAGCGGCATGGTGCAGACCCACGTGACAACACCCGGCAGCATCCCAACAATCTGCGACCTGGCCCGCACCTTCGCCCGCGAGATGGGCGAGGCCAACTAATAGGGATCCCTCGAGAAGCTTGTCA

Legend:
Format in all cases: cell-based
cancer cells = test: GCV mediated cancer kill following retroviral transduction delivery
Excerpt: To our knowledge, this is the most GCV selective HSV-TK synthetic gene product for GCV activation which has no Thymidine activity (HAT assay) ever evaluated biologically.

A375 human melanoma = test: In vitro bystander assay; conditions: 0-100% HSV-TK-m2 cells, 5-20 μM GCV
Description: (§1) Cells are seeded at 1-4×10^4 cells/well in a 96 well plate, in triplicate, with mixtures of TK cells ranging from 0-100%. The next day GCV is added at doses ranging from 10 μm to 1 mM. Cells plates at confluency are split 1:30 into 3 plates, 20-24 hours after GCV addition. 5 days later, cells are analyzed by Presto Blue for live cell metabolism and read on a microplate reader. Cell plates at sub-confluency are analyzed 3 days after GCV treatment by Presto Blue.
(§2) A375 human melanoma and C6 rat glioma stable pure population cell lines were established containing the A168H mutated HSV-TK-m2 gene. The bystander assays were conducted by plating the cancer cells with mixtures of the parental non-HSV-TK-m2 cells with the corresponding HSV-TK-m2 cell line ranging from 0-100% HSV-TK-m2. The mixtures of cancer cells were subsequently exposed to 5-20 μM GCV and cell kill is plotted in the figures below.

C6 rat glioma = test: In vitro bystander assay; conditions: 0-100% HSV-TK-m2 cells, 5-20 μM GCV
Description: as §1, §2

| Molecule | GCV mediated cancer kill activity (cancer cells) | cell kill in mixed populations (bystander effect) (A375 human melanoma) | cell kill in mixed populations (bystander effect) (C6 rat glioma) |
| --- | --- | --- | --- |
| B1 | exhibited pro-drug GCV enzyme activity and selectivity for their ability to kill cancer cells | significant increases in the mixed populations over what would be considered theoretical | significant increases in the mixed populations over what would be considered theoretical |
| B2 | exhibited GCV mediated cancer cell kill activity |  |  |
